Article PMC7251119 (Nature Communications, 2020)

B1: SetA(480-644) (domain or fragment)
chain: GAGTEVEAHESTVKEQEIISQNTVGEEGTKEKNSVQLASENSSDEKIKTAHDLIDEIIQDVIQLDGKLGLLGGNTRQLEDGRVINIPNGAAMIFDDYKKYKQGELTAESALESMIKIAKLSNQLNRHTFFNQRQPETGQFYKKVAAIDLQTTIAAEYDNNHGLRI
B2: SetA(480-644) (domain or fragment)
chain: B1 chain
B3: (His)10-MBP-DotL(656-783)–IcmSW–LvgA (complex)
chain 1: GQNEPEPVEDIVEEEVEGALTIFSKLRIDPNAPPILVADKEVFSEPLLPINETRNQMITIERLAGAKDKYAGTVANELIKDFQIATSYPPEERDVIDVQELTGIIRDLSAKISAEREKANKKAAEELT
chain 2: MERDISKCMAKIAASMNAKFYLNDRFVSFDEVFSETGLLPAIAKRADQLCSLCLGYGLGATYDESEGALLGIRVVFDEVTPNVLRLLCMTDVMNELIQGGPSRDYTPLDELMYD
chain 3: MPDLSHEASAKYWFEYLDPMIYRVITFMESVENWTLDGNPELEEAMKQLGQELDDIEKIDLGLLAEEDKFIRIVGNIKSGRGLRLLQAIDTVHPGSASRVLIHAEETSLSSSDPAGFFLKRNIVFERLRLLSRVFCQYRLKLVLRALEGDE
chain 4: MADGDIEIKAGFVDTDLDDRKLTMIDDLNNPLAIVERVYLIWWHWADFHLHVISPHIDTITPAIVIEPELIPGSNDHEFVYSIHDSGSKLSTSKSQDMFSAGMSMCKLFYTIEKMVYILVERLKSGGVSMEAEVQIAFAGHEIAQRKAFESIINLPYNVVVTNFDPGIWGEKYLQNVKRLADKGYGYPPESPRKIYMHPVSSGTTARK
notes: copies: + + +

What was measured:
[1] = target: the molecule itself; experiment: SEC; […]; 20 mM Tris-HCl (pH 7.5) plus 100 mM NaCl or 300 mM NaCl; […]
[2] = target: B3; experiment: native gel or EMSA; conditions: both partners purified
[3] = target: T1, SetA (Legionella pneumophila, UniProt Q5ZU30 1-644); experiment: native gel or EMSA; conditions: both partners purified
T1 sequence: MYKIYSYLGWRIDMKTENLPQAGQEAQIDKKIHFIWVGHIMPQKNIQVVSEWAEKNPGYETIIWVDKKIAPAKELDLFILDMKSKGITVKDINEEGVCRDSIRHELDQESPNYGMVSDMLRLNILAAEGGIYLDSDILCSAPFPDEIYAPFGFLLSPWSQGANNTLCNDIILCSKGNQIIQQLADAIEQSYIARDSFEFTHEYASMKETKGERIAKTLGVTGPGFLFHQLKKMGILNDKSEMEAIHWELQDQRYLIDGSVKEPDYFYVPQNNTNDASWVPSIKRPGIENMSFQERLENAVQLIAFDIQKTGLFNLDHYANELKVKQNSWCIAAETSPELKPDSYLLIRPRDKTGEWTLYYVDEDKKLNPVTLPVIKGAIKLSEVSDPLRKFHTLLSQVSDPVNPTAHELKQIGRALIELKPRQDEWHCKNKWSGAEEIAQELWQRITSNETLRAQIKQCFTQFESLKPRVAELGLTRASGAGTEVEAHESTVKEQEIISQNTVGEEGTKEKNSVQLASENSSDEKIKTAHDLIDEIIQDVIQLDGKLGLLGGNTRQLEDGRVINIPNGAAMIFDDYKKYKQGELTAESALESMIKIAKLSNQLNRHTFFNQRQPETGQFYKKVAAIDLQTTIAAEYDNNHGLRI

[4] = target: VpdB(11-590) (Legionella pneumophila, UniProt Q5ZW60 11-590); experiment: BLI; conditions: both partners purified

Question: Which “stoichiometry N” value [1] does the source give for B1 here?
Answer: 2

Question: Does B2 bind [2]?
Answer: binds

Question: Does ENETLVSSFKQRLQNIKG [(His)10-YFP-SidH(2183-2200)] bind [2]?
Answer: binds

Question: Does B3 bind [3]?
Answer: binds

Question: What about the Kd [4] of the same binder?
Answer: ~400 nM
